Data taken from publication PMC5078793.
pKd: −log10 of the molar value.

Biological target: ADAMTS6 C-terminal region (human) (UniProt Q9UKP5)
Test: SPR; Biacore; ADAMTS protein (full-length or C-terminal region) immobilised by amine coupling on CM5 (~3000 RU); analyte injected at 30 ul/min; 10 mM HEPES pH 7.4, 0.1 M NaCl, 0.5 mM CaCl2, 0.005% P20; 1:1 kinetics or equilibrium analysis

Chain of ADAMTS6 C-terminal region (human) (Q9UKP5 558-1117): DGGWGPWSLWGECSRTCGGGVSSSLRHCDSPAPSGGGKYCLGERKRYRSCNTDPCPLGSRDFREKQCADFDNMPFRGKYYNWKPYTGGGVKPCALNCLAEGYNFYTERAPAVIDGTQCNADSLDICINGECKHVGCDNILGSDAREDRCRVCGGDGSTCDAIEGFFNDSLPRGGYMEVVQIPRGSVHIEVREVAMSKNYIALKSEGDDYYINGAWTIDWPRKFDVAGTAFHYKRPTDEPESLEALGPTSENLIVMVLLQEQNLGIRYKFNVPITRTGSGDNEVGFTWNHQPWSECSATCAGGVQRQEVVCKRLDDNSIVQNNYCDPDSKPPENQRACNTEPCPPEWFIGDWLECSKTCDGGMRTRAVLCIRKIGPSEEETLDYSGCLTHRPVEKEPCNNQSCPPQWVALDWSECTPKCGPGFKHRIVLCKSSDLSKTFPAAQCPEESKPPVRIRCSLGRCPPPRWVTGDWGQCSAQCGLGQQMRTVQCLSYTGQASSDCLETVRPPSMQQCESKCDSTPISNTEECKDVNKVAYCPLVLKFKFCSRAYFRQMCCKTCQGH

With cellular fibronectin (natural protein) the pKd was 8.01.
